Data on 22 sequences can be found in a protein production outcome set (Wang et al. 2014).
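Further: failed if final PepcDB status was selected cloned or expressed and not failed if soluble or beyond.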

The data set in a line: label from the status in PepcDB records.
“MKITGTVVKLGIVSVVLLFFTVMIIVIFGQMRFDRTNGYTAEFSNVSGLRQGQFVRASGVEIGKVKALHLVDGGRRVRVEFNIDRSVPLYQSTTAQIRYSDLIGNRYVELKRGEGKGANDLLPPGGLIPLSRTSPALDLDALIGGFKPVFRALDPAKVNNIANALITVFQGQGGTINDTLDQTAQLTSQIAERDQAIGEVVKNLNIVLDTTVKHRKEFDETVNNLENLITGLRNHSDQLAGGLAHISNGAGTVADLLAENRTLVRKAVSYLDAIQQPVIDQRVELDDLLHKTPTALTALGRANGTYGDFQNFYLCDLQIKWNGFQAGGPVRTVKLFSQPTGRCTPQ”: the protein production entry is reported as “failed”.

Turning to “MGLSAVAVFAISGALDAARQKMDILGFMLIGTATGLGGGTLRDLLLGNVPVFWIREPIWIIVCLVSTAITYFIAPKLASITRALIWMDAVGIALFAVVGTEIALEFGTSPLIAICMGVMTASFGGIARDVLSGSNLTLMNEELYITTTVAGSVMYLWLNTLSLPANYDLIGGFFIAFILRALAIRFHIKLPNHYRKD”, the protein production result was “failed”.

In the case of “MMARVEKLRELMKENNLQGFLVTSPYNLRYLTNFTGTTGLAMITLDKAFFVTDFRYTEQAAEQATGFTIVKNTGHIFDEVADLAERLQLDNLAFEETQVSFADYSLLEEILPCELVPVMGLIEELR”, the protein production entry was “not failed”.

In the case of “MQWANLALFLTEAIVYFSVMTAFLHYRHILGIGVFLTALGVMHFLETYLAAVFYVQLPFGVASPGSSILFAGKLMMILMLYMREDAAVVRQPIYGLFLGNILTVIMAQIIRFHQTVAIVPGQSVSTGFLDEMGILMVWGTSLLYIDAIAIILFYEKLGRYLQRHIVLRFAICGVVILSFDQAGFYGALRLLFNAPVDVFYDGWKAKMAAVGIYSLLFATYLWLTAAKGRFLTRRSVADVFNDLTFRERYEELLSRSGRDMLTGVSDRARMELDAPSLVVECLEKRRPVSVLIVDIDHFKTVNDTFGHLQGDEILREFAAVLKRAVQPLGHLYRFGGEEFVALLPAMTHETALAFSASLRVAVLAELQRPDGSPLTVSIGVATAFEDGQLFRALLSEADAWLYAAKNNGRDQVHGRHGMWVG”, the protein production entry was “failed”.

Consider “YIGLVNSFAQKKKLSVNYEQCEPNSELPQRFICKCKIGQTMYGTGSGVTKQEAKQLAAKEAYQKLLKSPPKTAGT”, for which the protein production entry is listed as “not failed”.

With “QVGIYRTRTCDGLILNANQRFADLFGFDSPQEIIGIEHTIGYWVNPSDRQQGIEVMKRDGEVRSYEAQMRKRDGTVFWGLFSSYLNAGDDYIEGVIADISDVYDELRLRKQAEVALQASEAELRSLFSAIPDPLCVVTAQ”, the protein production result is recorded as “failed”.

For the sequence “MTNFTQSINFPGSLPLTRNLLAAACFFAMTQASAAGFISDVKQISDQEVRSGEGYYRADGKWLVYQAEVAGENPFYQIYLKNIASGEVQQVSPGIGKTTCSWVHPIQEKVLFSSTHEDPEAKAKMTTEIEQRKSGQRRSYAWDYDEFYDIYETDFAGGNIRNLTHTKGYDAEASWSPDGRLIAFASNRRAYSEPLSEAETVLFSNDPSSMIDIYIMDADGSNVKRLTHTNSYDGGPFFSPDGKRIVWRRFSENGQEAEIFTMNTDGSDQKQITRLNKMSWAPFYHPSNQYIIFATNVHGHRNFELYIVDIDGKKEPVRVTDEEGFDGLPVFTPDGQYITWTSDRTPDHKGRLFHGKWDHKKALESLGLE”, the protein production result was “failed”.

Turning to “SQFVLQDLQDATLGSLLSSLMQHCDPPQRKYPLEKGTPPPWWPTGNEEWWVKLGLPKSQSPPYRKPHDLKKMWKVGVLTAVINHMLPDIAKIKRHVRQSKCLQDKMTAKESAIWLAVLNQEESLIQQ”, the protein production entry is recorded as “not failed”.

As for “MGMASMSSGTESLRLCVFDLRRGQHEGQELDKILFFYPPDLTFSTQLSVIGLSEGLITFTRLFSPEAACEVIEAERHSHVFYEAEPDIWMVMIVEKNKEIEAVWRIDALRRVLKEVHSLFVMFQGSIRALLEKEPTGGLVRSHLYPFITDYLNDLFVGKKQQLPSFRDTLKERGTVQMLTLARDAALEVQSLVGVLDSCAGTVRCHSVILFHDLLVSTTLSPDDTVDLFAFSVMRLTTNALSSGTSSWSYLRKGSGSPQISSRSTTVPPLGSGGTLPSGNGSSTGRVIRPLQHDKWSKGKDGFLVTDIWGLDATPTILIQKTQESFYLLTYQYKSLTLVLLVPIAAIVNGELDISFVKQQVIENASTKILKVEEKLSKGWGGENAYHVSGYRYLLVDNDMEVSRASPPGKVATLAKESLLALNKLREEVDTEKNRSKQEKDMEICIRAKNNTWVIARLNRGKELYMALEKASETLLDATDSVQRFSNRYCSGAFPMD”, the protein production entry is given as “failed”.

In the case of “EHGLLVHKAVDKWTTEEVVLWLEQLGPWASLYRDRFLSERVNGRLLLTLTEEEFSRAPYTIENSSHRRVILTELERVR”, the protein production result is given as “not failed”.

Regarding “LQASCSDDQEHRLGSLDFYTGVFALEKSRIAEISNRATLELQKMATSGEPMWLRSVETGREILNYDEYLKEFPQAQASSFPGRKTIEASRDAGIVFMDAHKLAQSFMDVGQWKETFACLISKAATVDVIRQGEGPSRIDGAIQLMFGEMQLLTPVVPTREVYFVRSCRQLSPEKWAIVDVSVSVEDSNTEKEASLLKCRKLPSGCIIEDTSNGHSKVTWVEHLDVSASTVQPLFRSLVNTGLAFGARHWVATLQLHCERLVFFMATNVPTKDSLGVTTLAGRKSVLKMAQRMTQSFYRAIAASSYHQWTKITTKTGQDMRVSSRKNV”, the protein production entry is recorded as “not failed”.

For the sequence “MEFSLIADTVTVCTAKQGIAFGKSLLQRLDLANHISFADSVVDHQSPGGGIVQASAIIFPVDAIAPPPVRSSSYKTIRRIRKKRRTRRVSFGGDGDDAGDFGRFLLEGDFGGSDGPFGFGGGGNDGGGKGWNYGGGGGGFGRDNWDGSSFSSWSDPAMEFVYEVICWIALSNCVHFAFKRIVRIVTDGEREKLNIALSPVC”, the protein production entry is recorded as “failed”.

With “MSRQFIIQLFLALLLCCLTITFSSIAKSAETTSTDDATDLVVAQKIIKNQQQTEKSSSASAVAVQQPQIANDMADGQSIRNLPSLNEPVIDQANLLSSEQRQALSDQIRQLYQTGKAQMAVVIVPTTGQEDIFDYAMRVGEKWQLGSAKRDNGILMAIAVNDRRIQILTGYGLEGVLPDIVVGRIIRDQITPYFKQAQYAQGIQSGVNEIEKIVNMDPEIAQQAAQDLKQRQEQALHEQQARSQMMVYSLIIVVVGIFASYIVGNRLSAATAGVAGIAAGVISGVGLITSLLIGLGIFLLLITSLAQLILQIFASGGGRGGGGGFGGGGGGGYSGGGGSFGGGGASGSW”, the protein production entry is reported as “failed”.

“MKQILFLLAAVLLLGGCAEEKKTDVRWATFNIRYDNPQDSLNNWQYRKDRVCQFIKDHELDIVGMQEVLHNQFQDLRAGLPEYDGIGVGRDDGKTAGEYAPLFYRKDKYEVLDSNTFWLAENPDSVGMMGWDAVCVRIATWAKFKDKATGKIFMAVNTHFDHVGEEARRQSALLIIRKIKEIVGERPAVVTGDFNVTDASDAYETITTNEFVMKDAYKTAARVTGVDYTFHDFARIPAEDCEKIDFIFVTPQVLVKSCEIPAEVPEALLSDHNPQLADLEF”: the protein production result is “failed”.

Regarding “MNVELFKKFSEKVEEIIEAGRILHSRGWVPATSGNISAKVSEEYIAITASGKHKGKLTPEDILLIDYEGRPVGGGKPSAETLLHTTVYKLFPEVNAVVHTHSPNATVISIVEKKDFVELEDYELLKAFPDIHTHEVKIKIPIFPNEQNIPLLAKEVENYFKTSEDKYGFLIRGHGLYTWGRSMEEALIHTEALEFIFECELKLLSFHS”, the protein production result is reported as “not failed”.

Turning to “MELDAFNKGAIPLINHPDCSALGYQVIQELGRNQEEGRITYLAHHHQSKQQVVIKEFSFAHTYTDWCDFTAYESEAKILQKLNHPRIPRYLDSFATQTGFYLVQEYKHALPLSSKRSFQPEEIKQIAVSVLEILVYLQQRIDPIIHRDIKPENILVDEQLNAYLVDFGLARVQDTKIALTSLLTGTPGFIPPEEQLGYSLSLASDLYSVGATLICLLANIRSVDIGKLIDSKGYFDFQKLDSQIDLRFRSWLMGMVEPKWQYRYTNAADALAALQPIQVTGNATAMEILATVIKLKYQTTVLGLAIIGVLAVAGATLILSQQGGAAQQLQEARK”, the protein production entry is “failed”.

Consider “MPDSPTLLDLFAEDIGHANQLLQLVDEEFQALERRELPVLQQLLGAKQPLMQQLERNGRARAEILREAGVSLDREGLARYARERADGAELLARGDELGELLERCQQANLRNGRIIRANQASTGSLLNILRGQDAPSLYDSRGGTASSSRQRPLSKA”, for which the protein production entry was “not failed”.

In the case of “RDIGKESLEKAPEVELVNSAEEGNAVVLDIRSPDEEDESPLEIVGVEVKHLPFYKLATQFGDLDQSKTYLLYCSRGVMSRLQALYLQEQGFNNVKVYR”, the protein production result is “failed”.

On to “MKTINIVAGGPKNLIPDLTGYTDEHTLWIGVDKGTVTLLDAGIIPVEAFGDFDSITEQERRRIEKAAPALHVYQAEKDQTDLDLALDWALEKQPDIIQIFGITGGRADHFLGNIQLLYKGVKTNIKIRLIDKQNHIQMFPPGEYDIEKDENKRYISFIPFSEDIHELTLTGFKYPLNNCHITLGSTLCISNELIHSRGTFSFAKGILIMIRSTDLEHHHHHH”, for which the protein production result was “not failed”.

In the case of “MRERLFANVRLRLSGGRQAAYISRAMSAAPDLRDPPPAHVRRLDPILVDRIAAGEVVERPASAVKELVENAIDAGARSIEVAIEGGGRRLIRVVDDGIGMGPDDLALAVERHATSKLPDGDLTRIGSLGFRGEALPSIGAVSRLTITSRTADGEGVSLTLDSGVKGPVRPAPASRGTRIEVTELFAATPARLKFLKTDRAETAAVSEILRRLAVAQPRIRFTLRTESGSPTVFPAESEPGPAALLRRLGAVLGPDFPGNAVPVDMAREGFALAGHVGLPTFHRGAASHIHFVVNGRPVRDRLLLGAVRGAYADTMSSDRHPVLALHLTCDPALVDVNVHPAKTELRFREPGLVRALIVSAIHEALRRAGARSSSTGTQAVLDALRAGAGMGSAPPMAAGVGRFAVHSGASTASALNPRPASRLFSGPSVAAPAGYRPAPRPAFTEDHPGFAETPQALFSADLAPPGADLRPEPEAVSEAETHPEAHPLGAARAQIHETYIVAQTRDGIVLVDQHAAHERLVYERLKSERAGGGVLAQGLLIPDVVEMAPEEADRLVEAAPELERLGLTLEAFGPGAVLVRSVPSALAGGSVKGLVLDVLDALAASGVEEGGPAGAGDPDPVSRRLDAILSRMSCHGSIRAGRRLKPEEMNALLREMEATPLSGSCNHGRPTFVSLGLADIERLFGRR”, the protein production entry is reported as “failed”.

With “MRLQELVLVKISLVFLWLIGFVFLQRSEENGFEEPNNGEELSWDDLEREAASNISSKRSHAERSHQHESFTKGDELSGDLYELWRQEQNSIAARLDKELKSRWELDELIEEQLSRYQSHYDNSMVSTFLKDVSNLVLPTWIPPHELAAVAWLGDWRPTSILDLVRILAAQNPSFSLSESSLRVLSQLLREIRIEEAVIDEEYAEIQATGVLYLPFSPLCNTRLHEEALRSVQELFGNIHKVISKAQRLRYKVLELVMKKLLNQTDTAEFVVAFAGIQDAIHQFGEQKKLRKIYPAVPSPLKGSGSSS”, the protein production result is “not failed”.

On to “MEDYGFEYSDEEQEEQDVDIENQYYNSKGMVETEPEEALSGFAEVVQMEPEKADWGFKALKQTVKIYYRLGKYKEMMEAYTEMLTYIKSAVTRNYSEKCINNIMDFVSGSASQNTGLLQEFYQTTLKALEEAKNERLWFKTNLKLCNIWFDIGEYRRMTKILKELHKSCQKEDGTDDQKKGSQLLEVYAIEIQIYTETKDNKKLKQLYHKALAIKSAIPHPRIMGIIRECGGKMHMAERQWEEAATDFFEAFKNYDEAGNQRRIQCLKYLVLANMLMESEVNPFDGQEAKPYKNDPEILAMTNLIAAYQRNEIIEFERILKSNRRTIMDDPFIRNYMEDLLKKVRTQVLLKLIKPYTKIGIPFISKELNVPETDVTELLVSLILDSRIDGHIDEMNRYLLRGDSGNGRKLHKAVDKWNSQLKSLSSNITSRVC”, for which the protein production entry was “failed”.
